In patent US20240407995A1, “BIOMINERALIZATION MATERIAL FOR TREATING DENTIN HYPERSENSITIVITY AND PROMOTING EPITAXIAL GROWTH OF ENAMEL, AND USE THEREOF” (SHAANXI NORMAL UNIVERSITY, priority 2022, published 2024):

Assay: Film-forming critical line of lysozyme concentration vs cysteine concentration
Type: physicochemical
Settings: FIG. 2
Method: In order to study a film-forming critical line between a film-forming protein and cysteine, the inventors prepared different concentrations of film-forming protein solutions and cysteine solutions, and curves were drawn as shown in FIG. 2. […] However, when the protein concentration was 0.2 mg/mL, higher concentration of cysteine was required for film formation.

With lysozyme [Lyz] the “protein concentration at which a small amount of cysteine could form a film” value was “greater than or equal to 0.2 mg/mL”.
